Holding throughout (experiment): cryo-EM structure
The target of assay [1] is φEL chaperonin (gene product 146 of Pseudomonas phage EL) (Pseudomonas phage EL).
Assay [2] has the same target. The source holds these as a separate data set.
The target is the same in assay [3]. This is another data set of the same source.

One may read the stoichiometry N as a count of units in the complex or per binding partner.

Like-named read-outs stand apart in the source and are kept apart here.

As to “φEL chaperonin (gene product 146 of Pseudomonas phage EL) (natural protein)”, the stoichiometry N turned out to be 7 in assay [1], 14 in assay [2] and 14 in assay [3].
